{"source": "patent US11857648B2", "about": "“Dimerization strategies and compounds for molecular imaging and/or radioimmunotherapy” (UNIVERSITY OF PITTSBURGH—OF THE COMMONWEALTH SYSTEM OF …, priority 2016, dated 2024)", "key": {"[1]": {"experiment": "PET/CT imaging, spontaneous transgenic mouse model", "conditions": "KCH (Pdx1-Cre;K-RasG12D/+; HMGB1−/−), mouse, in vivo, iv, total radioactivity, 1 hour post injection", "procedure": "(§1) In vivo PET/CT imaging was conducted in the genetically engineered KCH (Pdx1-Cre;K-RasG12D/+; HMGB1−/−) mouse model. High mobility group box 1 (HMGB1) is a critical regulator of autophagy, a major pathway for degradation of effete proteins and damaged organelles, and the conditional genetic ablation of HMGB1 limited to the pancreas inhibits autophagy, promotes proliferation, activates normally quiescent pathways, and renders mice extraordinarily sensitive to K-RasG12D/+-driven pancreatic carcinogenesis. The progression of PanINs from low grade PanINI to high grade PanIN3 could be observed as early as seven days (normally three-nine months) after birth in KCH (Pdx1-Cre;K-RasG12D/+;HMGB1−/−). PET imaging normally was performed˜6 weeks old KCH mice.\n(§2) Either the CNGRC-(^68Ga)NOTA-RGDyK (“CNGRC” disclosed as SEQ ID NO: 1) heterodimer, (^68Ga)NOTA(CNGRC) (“CNGRC” disclosed as SEQ ID NO: 1), or (^68Ga)NOTA(RGDyK)] were injected into the bloodstream via tail vein injection. Blocking studies were conducted for the heterodimer studies by co-injecting 100× of CNGRC (SEQ ID NO: 1) and RGDyK. Small animal PET/CT was performed at 1 hour post injection of tracers (FIGS. 16A-16D)."}, "[2]": {"test_system": "KCH (Pdx1-Cre;K-RasG12D/+; HMGB1−/−) mouse model", "experiment": "PET/CT imaging, spontaneous transgenic mouse model", "procedure": "as §1, §2"}, "[3]": {"experiment": "PET/CT imaging, orthotopic xenograft mouse model", "format": "in vivo, Balb/c mice", "conditions": "Balb/c, mouse, iv, total radioactivity, 1 hour post injection", "procedure": "(§3) In vivo PET/CT imaging was conducted in Balb/c mice. One week after the orthotropic implantation of 1×10^6 luciferase-transfected KPCP cancer cells into the pancreas of Balb/c mice, the mice were used for PET imaging. Either the CNGRC-(^68Ga)NOTA-RGDyK heterodimer (“CNGRC” disclosed as SEQ ID NO: 1), (^68Ga)NOTA(CNGRC) (“CNGRC” disclosed as SEQ ID NO: 1), or (^68Ga)NOTA(RGDyK)] were injected into the bloodstream via tail vein injection. Blocking studies were conducted for the heterodimer studies by co-injecting 100× of CNGRC (SEQ ID NO: 1) and RGDyK. Small animal PET/CT was performed at 1 hour post injection of tracers (FIGS. 15A-15C)."}, "[4]": {"test_system": "luciferase-transfected KPCP cancer cells", "experiment": "PET/CT imaging, orthotopic xenograft mouse model", "format": "in vivo, Balb/c mice", "conditions": "1 hour post injection", "procedure": "as §3"}, "[5]": {"test_system": "bxpc3 and 4T1 tumor xenografts", "experiment": "PET/CT imaging, subcutaneous xenograft mouse model", "format": "in vivo, NCr nude mice", "conditions": "1 hour post injection", "procedure": "In vivo PET/CT imaging was conducted in NCr nude mice bearing bxpc3 (human pancreatic adenocarcinoma cell line) and 4T1 (a murine breast cancer cell line that overexpresses integrin αvβ3 and CD13) tumor xenografts.\nMice were injected with bxpc3 cells (1 million cells in 150 μL PBS) into the subcutaneous flank of the right shoulder and 4T1 cells (1 million cells in 150 μL PBS) into the subcutaneous flank of the left shoulder."}}, "data": [{"smiles": "N=C(N)NCCC[C@@H]1NC(=O)CNC(=O)[C@H](CC(N)=O)NC(=O)[C@@H](NC(=O)CCOCCOCCOCCOCCNC(=O)C(CCn2nnc3c2CCC2C(CC3)C2COC(=O)NCCOCCOCCOCCOCCC(=O)NCCCC[C@@H]2NC(=O)[C@@H](Cc3ccc(O)cc3)NC(=O)[C@H](CC(=O)O)NC(=O)CNC(=O)[C@H](CCCNC(=N)N)NC2=O)N2CCN(CC(=O)O)CCN(CC(=O)O)CC2)CSSC[C@@H](C(N)=O)NC1=O", "note": "(some centres unmarked) [CNGRC-(^68Ga)NOTA-RGDyK, metal not drawn]", "values": [{"measurement": "tissue uptake at 1 h", "setting": "[1]; uptake in blood", "result": 0.23, "unit": "%ID/g"}, {"measurement": "tissue uptake at 1 h", "setting": "[1]; uptake in kidney", "result": 5, "unit": "%ID/g"}, {"measurement": "tissue uptake at 1 h", "setting": "[1]; uptake in liver", "result": 4.7, "unit": "%ID/g"}, {"measurement": "tissue uptake at 1 h", "setting": "[1]; uptake in muscle", "result": 0.38, "unit": "%ID/g"}, {"measurement": "tissue uptake at 1 h", "setting": "[1]; uptake in spleen", "result": 3.1, "unit": "%ID/g"}, {"measurement": "in vivo performance", "setting": "[2]; 1 hour post injection", "result": "longer blood retention, better tumor/non-tumor ratios"}, {"measurement": "uptake in malignant pancreas", "setting": "[2]; 1 hour post injection", "result": 5.9, "unit": "% ID/g"}, {"measurement": "specific tumor uptake", "setting": "[2]; PET imaging", "result": "showed specific tumor uptake"}, {"measurement": "tissue uptake at 1 h", "setting": "[3]; blood, read-out: uptake in blood", "result": 0.1, "unit": "%ID/g"}, {"measurement": "tissue uptake at 1 h", "setting": "[3]; kidney, read-out: uptake in kidney", "result": 2.2, "unit": "%ID/g"}, {"measurement": "tissue uptake at 1 h", "setting": "[3]; liver, read-out: uptake in liver", "result": 1.8, "unit": "%ID/g"}, {"measurement": "tissue uptake at 1 h", "setting": "[3]; muscle, read-out: uptake in muscle", "result": 0.1, "unit": "%ID/g"}, {"measurement": "tissue uptake at 1 h", "setting": "[3]; pancreas, read-out: uptake in pancrease", "result": 0.36, "unit": "%ID/g"}, {"measurement": "tissue uptake at 1 h", "setting": "[3]; spleen, read-out: uptake in spleen", "result": 1.1, "unit": "%ID/g"}, {"measurement": "in vivo performance", "setting": "[4]", "result": "longer blood retention, better tumor/non-tumor ratios"}, {"measurement": "uptake in orthotopic tumor", "setting": "[4]", "result": 1.4, "unit": "% ID/g"}, {"measurement": "in vivo performance", "setting": "[5]", "result": "longer blood retention, better tumor/non-tumor ratios"}]}]}
